Results on 2 molecules are retold here after article PMC2936295, “Integrative inference of gene-regulatory networks in Escherichia coli using information theoretic concepts and sequence analysis”.

The target in data set [1] is T1, PdhR-His (Escherichia coli K-12 LJ110, UniProt P0ACL9 1-254). The data set can be described thus: EMSA; no pyruvate; 18-46 pmol PdhR; EMSA, binding buffer and conditions as in ref 17 (not given) plus 0.1 mg/ml herring sperm DNA; 0.1 pmol probe (0.025 pmol for lipA); 6% polyacrylamide gel; pH. The note with it: protein: recombinant; tags: C-terminal Penta-His; chain copies: 2; label: 5' DY782 (strand 1); 5' DY682 (strand 2); as printed, strand 2 has 3 extra nt (CAG opposite a gap in strand 1), possible misprint; blunt ends. For orientation: Mobility shift assays separate free from complexed probe on a gel.
T1 sequence (P0ACL9 whole entry): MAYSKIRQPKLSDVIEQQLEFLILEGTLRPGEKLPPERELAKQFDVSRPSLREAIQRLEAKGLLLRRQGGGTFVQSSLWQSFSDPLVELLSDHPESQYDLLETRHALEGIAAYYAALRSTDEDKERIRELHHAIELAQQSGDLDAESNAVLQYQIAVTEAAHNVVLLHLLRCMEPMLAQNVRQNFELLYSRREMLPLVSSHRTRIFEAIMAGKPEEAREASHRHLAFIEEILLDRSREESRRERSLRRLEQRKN

Data set [2] has as its target T1, PdhR-His. The data set can be described thus: EMSA; no pyruvate; 9-37 pmol PdhR; EMSA, binding buffer and conditions as in ref 17 (not given) plus 0.1 mg/ml herring sperm DNA; 0.1 pmol probe (0.025 pmol for lipA); 6% polyacrylamide gel; pH. The note with it: protein: recombinant; tags: C-terminal Penta-His; chain copies: 2; label: 5' DY682 (strand 1); 5' DY782 (strand 2); blunt.

B1: Mlc-binding site (ptsG) (dsDNA)
DNA 1: TTGGCAAATTATTTTACTCTGTGTAATAAATAAAGGGCG
DNA 2: CGCCCTTTATTTATTACACAGAGTAAAATAATTCAGTGCCAA
Turning to B1, the binding result in the data set with PdhR-His [1] is “no binding”.

B2: PdhR-binding site of pdhR-aceEF-lpd operon (dsDNA)
DNA 1: GCCGAAGTCAATTGGTCTTACCAATTTCATGTCTGTG
DNA 2: CACAGACATGAAATTGGTAAGACCAATTGACTTCGGC
Turning to B2, the binding result with PdhR-His [2] is reported as “binds”.
